Assay results published in patent US20240368283A1 (published 2024).

T1: human FcγRIIβ (human, UniProt P31994 46-217, limits assumed)
T1 construct: also called FcγRIIb; R2b
T1 sequence (looked up): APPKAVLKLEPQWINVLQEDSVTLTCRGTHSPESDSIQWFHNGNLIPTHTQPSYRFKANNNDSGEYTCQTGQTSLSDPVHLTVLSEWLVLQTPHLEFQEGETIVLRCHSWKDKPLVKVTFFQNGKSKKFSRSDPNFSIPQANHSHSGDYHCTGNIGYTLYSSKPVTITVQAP


Legend:
[1] = molecular target: PD-1 (in the reporter cells of the PD-1 agonism assay) (Homo sapiens (Human), UniProt Q15116 25-288); assay: cell-based or functional assay
FcγRI = assay: Fc receptor affinity, Table 29 (method for Fc receptors not told in Example 43)
human FcγRIIβ [2] = molecular target: T1, human FcγRIIβ; assay: as above
Cyno PD-1 = molecular target: T2, Cyno PD-1 (cyno); assay: BLI (Octet RED96), antibody captured on anti-human IgG Fc biosensors, PD-1 titrated; steady state (footnote *)
T2 construct: also called cynomolgus PD-1; cyPD1

Recombinant human PD-1 = molecular target: T3, Recombinant human PD-1 (human, UniProt Q15116 25-170, limits assumed); assay: as above
T3 construct: Soluble recombinant analyte in BLI; also called huPD1

human FcγRIIβ [3] = molecular target: T1, human FcγRIIβ; assay: SPR, antibody captured on ProA/G HC30M chip, recombinant human FcγRIIβ injected (4 nM-5 uM); average kinetic KD
Description: (§1) Example 52: The binding of anti-FcγRIIβ antibodies to human FcγRIIβ was evaluated. Antibodies were captured on ProA/G HC30M chip at 5 ug/mL, 1 ug/mL, and 0.2 ug/mL for 15 minutes. Six buffer injections were made over the chip followed by injections of increasing concentrations of recombinant human FcγRIIβ (4 nm-5 uM). The association was measured during each injection for 5 minutes and the dissociation was measured for 10 minutes post injection with buffer flow (1×HBSTE+ BSA).

human FcγRIIβ [4] = molecular target: T1, human FcγRIIβ; assay: SPR, antibody captured on ProA/G HC30M chip, recombinant human FcγRIIβ injected (4 nM-5 uM); average steady state KD
Description: as §1

human FcγRIIβ [5] = molecular target: T1, human FcγRIIβ; assay: ratio of KD on FcγRIIα R131 to KD on FcγRIIβ, Table 29

Sequence of PD-1 (in the reporter cells of the PD-1 agonism assay) (Q15116 25-288 limits assumed): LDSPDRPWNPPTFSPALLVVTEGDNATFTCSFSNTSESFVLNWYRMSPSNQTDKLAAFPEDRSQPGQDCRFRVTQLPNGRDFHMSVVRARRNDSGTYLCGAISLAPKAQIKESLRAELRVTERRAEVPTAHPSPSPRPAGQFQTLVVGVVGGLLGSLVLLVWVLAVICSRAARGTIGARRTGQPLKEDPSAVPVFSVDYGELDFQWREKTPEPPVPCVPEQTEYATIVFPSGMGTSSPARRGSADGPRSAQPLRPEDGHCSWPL
Sequence of FcγRI (P12314 16-292): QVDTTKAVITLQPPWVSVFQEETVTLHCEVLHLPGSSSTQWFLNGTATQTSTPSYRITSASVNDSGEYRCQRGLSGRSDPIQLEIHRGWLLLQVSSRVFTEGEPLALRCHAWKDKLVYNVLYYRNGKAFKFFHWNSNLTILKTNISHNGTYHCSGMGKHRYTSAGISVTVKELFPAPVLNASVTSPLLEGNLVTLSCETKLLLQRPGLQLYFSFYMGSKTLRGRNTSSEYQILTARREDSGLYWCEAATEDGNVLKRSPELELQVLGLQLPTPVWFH
T3 sequence (Q15116 25-170 limits assumed): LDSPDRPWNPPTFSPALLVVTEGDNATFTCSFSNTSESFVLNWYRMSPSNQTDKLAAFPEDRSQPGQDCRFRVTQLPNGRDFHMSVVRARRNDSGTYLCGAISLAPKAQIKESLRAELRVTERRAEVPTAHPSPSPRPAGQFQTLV

Row | Emax [1] | log EC50 [1] | Affinity to RI relative to WT (FcγRI) [fold lower than WT] | Kd (human FcγRIIβ [2]) [nM] | Kd (Cyno PD-1) [nM] | Kd (Recombinant human PD-1) [nM] | Kd (human FcγRIIβ [3]) [nM] | Kd (human FcγRIIβ [4]) [nM] | R131/2b (fold) (human FcγRIIβ [5]) | Binder
1 | 2.2 | -8.3 | > 10 | 3100 | 600 | 1000 | – | – | – | TA359 (antibody, human IgG1, lambda) heavy: not shown light: QAVVTQEPSLTVSPGGTVTLTCRSSTGAVTTSNYANWVQQKPGQAFRGLIGGTNNRAPGVPDRFSGSILGNKAALTITGAQADDESDYYCALWYSNHFIFGSGTKVTVLGQPKAAPSVTLFPPSSEELQANKATLVCLISDFYPGAVTVAWKADSSPVKAGVETTTPSKQSNNKYAASSYLSLTPEQWKSHRSYSCQVTHEGSTVEKTVAPTECS
2 | – | – | – | – | – | – | 37.3 | 40 | – | ARB49 (antibody, human IgG1, kappa, copies: 2 + 2) heavy: not shown light: EIVMTQSPATLSLSPGERATLSCRASQSLSSSHLAWYQQKPGQAPRLLIYDASIRVPGIPARFSGSGSGTDFTLTISSLEPEDFAVYYCQQYAVPPITFGGGTKVEIKRTVAAPSVFIFPPSDEQLKSGTASVVCLLNNFYPREAKVQWKVDNALQSGNSQESVTEQDSKDSTYSLSSTLTLSKADYEKHKVYACEVTHQGLSSPVTKSFNRGEC
3 | 2.1 | -8.3 | > 10 | 3500 | – | – | – | – | 9.7 | TA322 (antibody, human IgG1, kappa) heavy: not shown light: QAVVTQESALTTSPGETVTLTCRSSTGAVTTSNYANWVQEKPDHLFTGLIGGTNNRAPGVPARFSGSLIGDKAALTITGAQTEDEAIYFCALWYSNHFIFGSGTKVTVLRTVAAPSVFIFPPSDEQLKSGTASVVCLLNNFYPREAKVQWKVDNALQSGNSQESVTEQDSKDSTYSLSSTLTLSKADYEKHKVYACEVTHQGLSSPVTKSFNRGEC
